# In PMC4679584:
# Molecular target: tumor suppressor gene 101 (TSG101) tagged with eYFP (UniProt Q99816)
# Experiment: FRET or BRET
# Chain of UniProt Q99816 (Q99816 whole entry): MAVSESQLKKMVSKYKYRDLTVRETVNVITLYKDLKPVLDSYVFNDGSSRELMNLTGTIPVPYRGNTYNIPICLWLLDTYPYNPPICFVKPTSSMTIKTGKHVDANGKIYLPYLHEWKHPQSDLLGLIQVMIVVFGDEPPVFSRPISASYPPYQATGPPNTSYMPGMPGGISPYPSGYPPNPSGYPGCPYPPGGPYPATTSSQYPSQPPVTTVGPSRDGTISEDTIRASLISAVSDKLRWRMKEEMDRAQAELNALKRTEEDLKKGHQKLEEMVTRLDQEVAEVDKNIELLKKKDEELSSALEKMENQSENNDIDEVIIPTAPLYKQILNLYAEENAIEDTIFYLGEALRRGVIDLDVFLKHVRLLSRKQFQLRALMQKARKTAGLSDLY
substance,measurement,value
"wild-type HEV ORF3 protein (Kernow-C1 P6, genotype 3) tagged with eCFP (natural protein)",FRET efficiency,21.5%
